Reference: the supplement of paper PMC10899765

Columns and labels:
Details in all cases: 20 nM; 72 h
[1] = system: MCF10A; experiment: 5+ nucleoli phenotype percent effect (relative to siNT 0% and siKIF11 100%); higher = more cells with five or more nucleoli
Method: (§1)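 After 72 h, cells were fixed and stained with Hoechst and anti-fibrillarin, and nucleoli per nucleus were counted with CellProfiler. Values are plate-adjusted percent effect for the one-nucleolus and 5+ nucleoli phenotypes, normalised to siNT (0%) and to the positive controls siNOL11 or siKIF11 (100%), as the mean of biological triplicates. Percent viability is the nuclei count relative to siNT.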

[2] = system: MCF10A; experiment: one-nucleolus phenotype percent effect (relative to siNT 0% and siNOL11 100%); higher = more cells with one nucleolus (ribosome biogenesis inhibition)
Method: as §1

[3] = system: MCF10A; experiment: percent viability (nuclei count relative to siNT); higher = more viable cells
Method: as §1

AGUGCCUGAGGGAGUAAGAGCCC [hsa-miR-550a-5p]
5+ nucleoli phenotype percent effect [1]: 12.6%
one-nucleolus phenotype percent effect [2]: 7.21%
percent viability [3]: 47.1%

ACUGGAAUUGGAGUCAAAA [hsa-miR-6128]
5+ nucleoli phenotype percent effect [1]: 36.5%
one-nucleolus phenotype percent effect [2]: -18.6%
percent viability [3]: 105%

UCUAGUGCGGGCGUUCCCG [hsa-miR-6080]
5+ nucleoli phenotype percent effect [1]: 23.2%
one-nucleolus phenotype percent effect [2]: -6.26%
percent viability [3]: 85.3%

AGGAGGUGGUACUAGGGGCCAGC [hsa-miR-6851-5p]
5+ nucleoli phenotype percent effect [1]: -20.3%
one-nucleolus phenotype percent effect [2]: 31.8%
percent viability [3]: 15.2%

CGUCCCACCCCCCACUCCUGU [hsa-miR-4433-5p]
5+ nucleoli phenotype percent effect [1]: 25.6%
one-nucleolus phenotype percent effect [2]: -1.75%
percent viability [3]: 40.9%

GGCGGAGGGAAGUAGGUCCGUUGGU [hsa-miR-658]
5+ nucleoli phenotype percent effect [1]: 5.47%
one-nucleolus phenotype percent effect [2]: -9.25%
percent viability [3]: 63%

GGGGGUCCCCGGUGCUCGGAUC [hsa-miR-615-5p]
5+ nucleoli phenotype percent effect [1]: 33.1%
one-nucleolus phenotype percent effect [2]: -20%
percent viability [3]: 137%

UGGGCGAGGGGUGGGCUCUCAGAG [hsa-miR-4649-5p]
5+ nucleoli phenotype percent effect [1]: 19.2%
one-nucleolus phenotype percent effect [2]: 1.85%
percent viability [3]: 45.5%

AAAGGUAAUUGCAGUUUUUCCC [hsa-miR-570-5p]
5+ nucleoli phenotype percent effect [1]: 56.8%
one-nucleolus phenotype percent effect [2]: -30.8%
percent viability [3]: 95.2%

UCUUCAACCUCAGGACUUGCA [hsa-miR-676-5p]
5+ nucleoli phenotype percent effect [1]: 37.9%
one-nucleolus phenotype percent effect [2]: -20.5%
percent viability [3]: 56%

AGGCCUCUGUGACGUCACGGUGU [hsa-miR-4757-5p]
5+ nucleoli phenotype percent effect [1]: 66.8%
one-nucleolus phenotype percent effect [2]: -11.7%
percent viability [3]: 62.5%

CUUGAGUCGUGCCUUUCUGAAUG [hsa-miR-8081]
5+ nucleoli phenotype percent effect [1]: -17.9%
one-nucleolus phenotype percent effect [2]: 14%
percent viability [3]: 95.5%

AGACCUGGCCCAGACCUCAGC [hsa-miR-631]
5+ nucleoli phenotype percent effect [1]: -2.57%
one-nucleolus phenotype percent effect [2]: 24.7%
percent viability [3]: 25.9%

CUCUGAUCGCCCUCUCAGCUC [hsa-miR-3192-3p]
5+ nucleoli phenotype percent effect [1]: -48.8%
one-nucleolus phenotype percent effect [2]: 57.6%
percent viability [3]: 34.9%

CUGACUGUUGCCGUCCUCCAG [hsa-miR-943]
5+ nucleoli phenotype percent effect [1]: -13.7%
one-nucleolus phenotype percent effect [2]: -0.183%
percent viability [3]: 62.9%

UCAGCUACUACCUCUAUUAGG [hsa-miR-5690]
5+ nucleoli phenotype percent effect [1]: 15.5%
one-nucleolus phenotype percent effect [2]: -20.3%
percent viability [3]: 105%

UUACAGUUGUUCAACCAGUUACU [hsa-miR-582-5p]
5+ nucleoli phenotype percent effect [1]: 12.8%
one-nucleolus phenotype percent effect [2]: -29.2%
percent viability [3]: 165%

UUCGGUAUACUUUGUGAAUUGG [hsa-miR-4798-5p]
5+ nucleoli phenotype percent effect [1]: -0.701%
one-nucleolus phenotype percent effect [2]: 0.862%
percent viability [3]: 78.1%

GAAAGUGCUUCCUUUUAGAGGC [hsa-miR-526b-3p]
5+ nucleoli phenotype percent effect [1]: 57.2%
one-nucleolus phenotype percent effect [2]: -23.4%
percent viability [3]: 105%

UUAGCGGUGGACCGCCCUGCG [hsa-miR-4321]
5+ nucleoli phenotype percent effect [1]: 3.56%
one-nucleolus phenotype percent effect [2]: -12.2%
percent viability [3]: 47%

CCUCCCAUGCCAAGAACUCCC [hsa-miR-2116-3p]
5+ nucleoli phenotype percent effect [1]: 58.4%
one-nucleolus phenotype percent effect [2]: -24.7%
percent viability [3]: 95.6%

CAAAGAGGAAGGUCCCAUUAC [hsa-miR-583]
5+ nucleoli phenotype percent effect [1]: -24.7%
one-nucleolus phenotype percent effect [2]: 27.5%
percent viability [3]: 69.2%

UUCGCCACUUCCCUCCCUGCAG [hsa-miR-6788-3p]
5+ nucleoli phenotype percent effect [1]: 18%
one-nucleolus phenotype percent effect [2]: -13.9%
percent viability [3]: 89.7%

UGGGUGUAGGCUGGAGCUGAGG [hsa-miR-6772-5p]
5+ nucleoli phenotype percent effect [1]: -8.54%
one-nucleolus phenotype percent effect [2]: 23.4%
percent viability [3]: 17%

UCAGCUCCUCUCUACCCACAG [hsa-miR-6736-3p]
5+ nucleoli phenotype percent effect [1]: -12.2%
one-nucleolus phenotype percent effect [2]: 8.25%
percent viability [3]: 37.4%

UCGAGGAGCUCACAGUCU [hsa-miR-151b]
5+ nucleoli phenotype percent effect [1]: 10.8%
one-nucleolus phenotype percent effect [2]: 11.9%
percent viability [3]: 57.3%

ACCCUCGUCAGGUCCCCGGGG [hsa-miR-4655-3p]
5+ nucleoli phenotype percent effect [1]: 6.66%
one-nucleolus phenotype percent effect [2]: -5.11%
percent viability [3]: 56.9%

CGGGCUGUCCGGAGGGGUCGGCU [hsa-miR-4741]
5+ nucleoli phenotype percent effect [1]: 42.5%
one-nucleolus phenotype percent effect [2]: -21.4%
percent viability [3]: 65.1%

CUCGGGCGGAGGUGGUUGAGUG [hsa-miR-4750-5p]
5+ nucleoli phenotype percent effect [1]: -7.37%
one-nucleolus phenotype percent effect [2]: 14.8%
percent viability [3]: 40.2%

AUAUACAGGGGGAGACUCUCAU [hsa-miR-1185-2-3p]
5+ nucleoli phenotype percent effect [1]: -11.3%
one-nucleolus phenotype percent effect [2]: 21.3%
percent viability [3]: 25.8%

CAGGGCUCAGGGAUUGGAUGGAG [hsa-miR-5088]
5+ nucleoli phenotype percent effect [1]: 20.4%
one-nucleolus phenotype percent effect [2]: -7.65%
percent viability [3]: 77.7%

CCCGGCCGGAACGCCGCACU [hsa-miR-6850-3p]
5+ nucleoli phenotype percent effect [1]: 23.1%
one-nucleolus phenotype percent effect [2]: -20.3%
percent viability [3]: 65.7%

CAAGCUUGUAUCUAUAGGUAUG [hsa-miR-100-3p]
5+ nucleoli phenotype percent effect [1]: 19.2%
one-nucleolus phenotype percent effect [2]: -5.48%
percent viability [3]: 77.2%

UGGGGCGGAGCUUCCGGAGGCC [hsa-miR-3180-3p]
5+ nucleoli phenotype percent effect [1]: 0.481%
one-nucleolus phenotype percent effect [2]: 8%
percent viability [3]: 12.9%

UACGUAGAUAUAUAUGUAUUUU [hsa-miR-1277-3p]
5+ nucleoli phenotype percent effect [1]: 41.8%
one-nucleolus phenotype percent effect [2]: -20.9%
percent viability [3]: 135%

UCAGUGUCUGGAUUUCCUAG [hsa-miR-6733-3p]
5+ nucleoli phenotype percent effect [1]: -16.2%
one-nucleolus phenotype percent effect [2]: -2.06%
percent viability [3]: 70.7%

AGCAGAGGCAGAGAGGCUCAGG [hsa-miR-2467-3p]
5+ nucleoli phenotype percent effect [1]: -24.4%
one-nucleolus phenotype percent effect [2]: 26.3%
percent viability [3]: 4.65%

UUGCACUCUGGCCUUCUCCCAGG [hsa-miR-7703]
5+ nucleoli phenotype percent effect [1]: -11.1%
one-nucleolus phenotype percent effect [2]: 23%
percent viability [3]: 25%

UAGCUUAUCAGACUGAUGUUGA [hsa-miR-21-5p]
5+ nucleoli phenotype percent effect [1]: 11.7%
one-nucleolus phenotype percent effect [2]: -9.39%
percent viability [3]: 121%

UGGGCUAAGGGAGAUGAUUGGGUA [hsa-miR-664b-5p]
5+ nucleoli phenotype percent effect [1]: 2.04%
one-nucleolus phenotype percent effect [2]: 5.55%
percent viability [3]: 32.1%

UUAGACCUAGUACACGUCCUU [hsa-miR-3684]
5+ nucleoli phenotype percent effect [1]: 16.1%
one-nucleolus phenotype percent effect [2]: -19.2%
percent viability [3]: 85.2%

AAAAGUAAUUGCGGUUUUUGCC [hsa-miR-548o-5p]
5+ nucleoli phenotype percent effect [1]: 43.1%
one-nucleolus phenotype percent effect [2]: -26.8%
percent viability [3]: 119%

CAGGGAACAGCUGGGUGAGCUGCU [hsa-miR-6750-5p]
5+ nucleoli phenotype percent effect [1]: 27.2%
one-nucleolus phenotype percent effect [2]: -6.66%
percent viability [3]: 60.6%

UGAUGAUACAGGUGGAGGUAG [hsa-miR-3682-3p]
5+ nucleoli phenotype percent effect [1]: -7.38%
one-nucleolus phenotype percent effect [2]: 19.3%
percent viability [3]: 31.5%

CGGAUGAGCAAAGAAAGUGGUU [hsa-miR-1255b-5p]
5+ nucleoli phenotype percent effect [1]: 45.2%
one-nucleolus phenotype percent effect [2]: -12.5%
percent viability [3]: 64.1%

CAGCAGCAAUUCAUGUUUUGAA [hsa-miR-424-5p]
5+ nucleoli phenotype percent effect [1]: -8.58%
one-nucleolus phenotype percent effect [2]: 24%
percent viability [3]: 77.3%

ACUGUAAACGCUUUCUGAUG [hsa-miR-3607-3p]
5+ nucleoli phenotype percent effect [1]: 42.2%
one-nucleolus phenotype percent effect [2]: -18.5%
percent viability [3]: 124%

UCUCCCUUCCUGCCCUGGCUAG [hsa-miR-4685-3p]
5+ nucleoli phenotype percent effect [1]: 29.5%
one-nucleolus phenotype percent effect [2]: -25.3%
percent viability [3]: 98.4%

AUGGAUAAGGCUUUGGCUU [hsa-miR-1261]
5+ nucleoli phenotype percent effect [1]: -12.9%
one-nucleolus phenotype percent effect [2]: 24.4%
percent viability [3]: 50.3%

UGCCCAUGCCAUACUUUUGCCUCA [hsa-miR-4641]
5+ nucleoli phenotype percent effect [1]: 7.52%
one-nucleolus phenotype percent effect [2]: 5.53%
percent viability [3]: 78.6%

CUUUUUGCGGUCUGGGCUUGC [hsa-miR-129-5p]
5+ nucleoli phenotype percent effect [1]: -6.61%
one-nucleolus phenotype percent effect [2]: 8.91%
percent viability [3]: 39.8%

CCUCACCAUCCCUUCUGCCUGC [hsa-miR-6511a-3p]
5+ nucleoli phenotype percent effect [1]: 24.1%
one-nucleolus phenotype percent effect [2]: -11.2%
percent viability [3]: 41.3%

CAGCGGAGCCUGGAGAGAAGG [hsa-miR-7846-3p]
5+ nucleoli phenotype percent effect [1]: -18.4%
one-nucleolus phenotype percent effect [2]: 11.9%
percent viability [3]: 41.6%

AAUAAUAUCACAGUAGGUGUAC [hsa-miR-5692c]
5+ nucleoli phenotype percent effect [1]: 46%
one-nucleolus phenotype percent effect [2]: -21.3%
percent viability [3]: 133%

CGUGGAGGACGAGGAGGAGGC [hsa-miR-7847-3p]
5+ nucleoli phenotype percent effect [1]: -7.84%
one-nucleolus phenotype percent effect [2]: 4.16%
percent viability [3]: 67.5%

GACUAUAGAACUUUCCCCCUCA [hsa-miR-625-3p]
5+ nucleoli phenotype percent effect [1]: 19.1%
one-nucleolus phenotype percent effect [2]: -5.42%
percent viability [3]: 104%

UGUGGAAGGUAGACGGCCAGAGA [hsa-miR-3190-3p]
5+ nucleoli phenotype percent effect [1]: -44%
one-nucleolus phenotype percent effect [2]: 42.7%
percent viability [3]: 19.8%

GAGCCAGUUGGACAGGAGC [hsa-miR-575]
5+ nucleoli phenotype percent effect [1]: 3.98%
one-nucleolus phenotype percent effect [2]: -23.7%
percent viability [3]: 129%

AACAUUCAUUGUUGUCGGUGGGU [hsa-miR-181d]
5+ nucleoli phenotype percent effect [1]: 12.5%
one-nucleolus phenotype percent effect [2]: -6.07%
percent viability [3]: 91.1%
